# From patent US20190135872A1
# Legend:
# [1] = target: +N332 PT (HIV-1 16055 (Indian subtype C)); test: negative-stain EM, 2D classes of trimer-Fab complexes
# [2] = target: +N332 N276Q/N360Q/N463Q/N301Q (HIV-1 16055 (Indian subtype C)); test: as above
# [3] = target: 16055 NFL TD CC (T569G) (HIV-1 16055 (Indian subtype C)); test: BLI (Octet): trimer on anti-His sensor, Fab in solution, 1:1 global fit
# [4] = target: +N332 PT (HIV-1 16055 (Indian subtype C)); test: as above
# [5] = target: +N332 N276Q/N360Q/N463Q (HIV-1 16055 (Indian subtype C)); test: as above
# [6] = target: N276Q/N463Q trimer (PT backbone) (HIV-1 16055 (Indian subtype C)); test: as above
# [7] = target: +N332 N301Q (HIV-1 16055 (Indian subtype C)); test: as above
# [8] = target: +N332 N276Q/N360Q/N463Q/N301Q (HIV-1 16055 (Indian subtype C)); test: as above
# [9] = target: +N332 N276Q/N360Q/N463Q (HIV-1 16055 (Indian subtype C)); test: BLI, trimer on anti-His sensor, Fab analyte
# [10] = target: N276Q/N463Q trimer (PT backbone) (HIV-1 16055 (Indian subtype C)); test: BLI, trimer on anti-His sensor, Fab analyte
# [11] = target: +N332 N301Q (HIV-1 16055 (Indian subtype C)); test: BLI, trimer on anti-His sensor, Fab analyte
# [12] = target: +N332 N276Q/N360Q/N463Q/N301Q (HIV-1 16055 (Indian subtype C)); test: BLI, trimer on anti-His sensor, Fab analyte
# [13] = target: BG505 NFL-TD+CC2-D4K_L555P w/rEK (HIV-1 BG505 (clade A)); test: ELISA, His-captured trimer
# [14] = target: JRFL NFL-CC2 (HIV-1 JRFL (clade B)); test: ELISA, His-captured trimer
# [15] = target: 16055 NFL (I559P) parental (HIV-1 16055 (clade C)); test: ELISA, His-captured trimer
# [16] = target: BG505 NFL-CC2 (HIV-1 BG505 (clade A)); test: ELISA, His-captured trimer
# [17] = target: 16055 NFL-CC2 (HIV-1 16055 (clade C)); test: ELISA, His-captured trimer
# [18] = target: 16055 NFL-Q563P (HIV-1 16055 (clade C)); test: ELISA, His-captured trimer
# [19] = target: 16055 NFL-L555P (HIV-1 16055 (clade C)); test: ELISA, His-captured trimer
# [20] = target: BG505 NFL (I559P) parental (HIV-1 BG505 (clade A)); test: ELISA, His-captured trimer
# [21] = target: 16055 NFL-TD+CC2-D4K_I559P w/rEK (HIV-1 16055 (clade C)); test: ELISA, His-captured trimer
# [22] = target: BG505 NFL-TD+CC2-D4K_L555P (HIV-1 BG505 (clade A)); test: ELISA, His-captured trimer
# [23] = target: BG505 NFL-TD+CC2-D4K_I559P w/rEK (HIV-1 BG505 (clade A)); test: ELISA, His-captured trimer
# [24] = target: 16055 NFL-TD+CC2-D4K_L555P (HIV-1 16055 (clade C)); test: ELISA, His-captured trimer
# [25] = target: BG505 NFL-TD+CC2-D4K_I559P (HIV-1 BG505 (clade A)); test: ELISA, His-captured trimer
# [26] = target: 16055 NFL-TD+CC2-D4K_I559P (HIV-1 16055 (clade C)); test: ELISA, His-captured trimer
# [27] = target: 16055 NFL-TD+CC2-D4K_L555P w/rEK (HIV-1 16055 (clade C)); test: ELISA, His-captured trimer
# [28] = target: BG505 NFL-L555P (HIV-1 BG505 (clade A)); test: ELISA, His-captured trimer
# [29] = target: BG505 NFL-S553P (HIV-1 BG505 (clade A)); test: BLI, IgG captured, trimer as analyte
# [30] = target: 16055 NFL (I559P) parental (HIV-1 16055 (clade C)); test: BLI, IgG captured, trimer as analyte
# [31] = target: BG505 NFL-CC2 (HIV-1 BG505 (clade A)); test: BLI, IgG captured, trimer as analyte
# [32] = target: 16055 NFL-CC2 (HIV-1 16055 (clade C)); test: BLI, IgG captured, trimer as analyte
# [33] = target: 16055 NFL-Q563P (HIV-1 16055 (clade C)); test: BLI, IgG captured, trimer as analyte
# [34] = target: 16055 NFL-L555P (HIV-1 16055 (clade C)); test: BLI, IgG captured, trimer as analyte
# [35] = target: BG505 NFL (I559P) parental (HIV-1 BG505 (clade A)); test: BLI, IgG captured, trimer as analyte
# [36] = target: BG505 NFL-Q563P (HIV-1 BG505 (clade A)); test: BLI, IgG captured, trimer as analyte
# [37] = target: 16055 NFL-Q562P (HIV-1 16055 (clade C)); test: BLI, IgG captured, trimer as analyte
# [38] = target: BG505 NFL-TD+CC2-D4K_L555P (HIV-1 BG505 (clade A)); test: BLI, IgG captured, trimer as analyte
# [39] = target: BG505 NFL-N554P (HIV-1 BG505 (clade A)); test: BLI, IgG captured, trimer as analyte
# [40] = target: 16055 NFL-TD+CC2-D4K_L555P (HIV-1 16055 (clade C)); test: BLI, IgG captured, trimer as analyte
# [41] = target: BG505 NFL-TD+CC2-D4K_I559P (HIV-1 BG505 (clade A)); test: BLI, IgG captured, trimer as analyte
# [42] = target: 16055 NFL-TD+CC2-D4K_I559P (HIV-1 16055 (clade C)); test: BLI, IgG captured, trimer as analyte
# [43] = target: BG505 NFL-L555P (HIV-1 BG505 (clade A)); test: BLI, IgG captured, trimer as analyte
# [44] = target: BG505 NFL-Q562P (HIV-1 BG505 (clade A)); test: BLI, IgG captured, trimer as analyte
substance,measurement,setting,value
VRC03 Fab,share of trimers unliganded,[1],19%
same,share of trimers with 1 Fab,[1],20%
same,share of trimers with 2 Fabs,[1],34%
same,share of trimers with 3 Fabs,[1],27%
same,share of trimers unliganded,[2],22%
same,share of trimers with 1 Fab,[2],23%
same,share of trimers with 2 Fabs,[2],30%
same,share of trimers with 3 Fabs,[2],25%
same,Kd,[3],241 nM
same,koff,[3],0.0026 s⁻¹
same,kon,[3],10800 M⁻¹ s⁻¹
same,Kd,[4],131 nM
same,koff,[4],0.00204 s⁻¹
same,kon,[4],15600 M⁻¹ s⁻¹
same,Kd,[5],12.9 nM
same,koff,[5],0.000739 s⁻¹
same,kon,[5],57100 M⁻¹ s⁻¹
same,Kd,[6],8.6 nM
same,koff,[6],0.000505 s⁻¹
same,kon,[6],58700 M⁻¹ s⁻¹
same,Kd,[7],270 nM
same,koff,[7],0.0037 s⁻¹
same,kon,[7],13700 M⁻¹ s⁻¹
same,Kd,[8],16.4 nM
same,koff,[8],0.00124 s⁻¹
same,kon,[8],75400 M⁻¹ s⁻¹
same,fold difference in affinity vs +N332 PT,[9],10 fold
same,fold more efficient recognition vs PT,[10],30 fold
same,fold lower binding vs +N332 PT,[11],2 fold
same,fold difference in affinity vs +N332 PT,[12],8 fold
2G12 (antibody),EC50,[13],0.021 µg/mL
same,EC50,[14],0.022 µg/mL
same,EC50,[15],2.34 µg/mL
same,EC50,[16],0.025 µg/mL
same,EC50,[17],0.056 µg/mL
same,EC50,[18],0.066 µg/mL
same,EC50,[19],0.051 µg/mL
same,EC50,[20],0.029 µg/mL
same,EC50,[21],0.105 µg/mL
same,EC50,[22],0.027 µg/mL
same,EC50,[23],0.031 µg/mL
same,EC50,[24],0.038 µg/mL
same,EC50,[25],0.024 µg/mL
same,EC50,[26],0.043 µg/mL
same,EC50,[27],0.11 µg/mL
same,EC50,[28],0.022 µg/mL
VRC01 (antibody),EC50,[13],0.069 µg/mL
same,EC50,[14],0.032 µg/mL
same,EC50,[15],0.055 µg/mL
same,EC50,[16],0.059 µg/mL
same,EC50,[17],0.021 µg/mL
same,EC50,[18],0.294 µg/mL
same,EC50,[19],0.178 µg/mL
same,EC50,[20],0.05 µg/mL
same,EC50,[21],0.208 µg/mL
same,EC50,[22],0.051 µg/mL
same,EC50,[23],0.066 µg/mL
same,EC50,[24],0.067 µg/mL
same,EC50,[25],0.042 µg/mL
same,EC50,[26],0.059 µg/mL
same,EC50,[27],0.178 µg/mL
same,EC50,[28],0.07 µg/mL
PGT145 (antibody),EC50,[13],0.015 µg/mL
same,EC50,[14],0.012 µg/mL
same,EC50,[16],0.011 µg/mL
same,EC50,[17],0.013 µg/mL
same,EC50,[18],0.013 µg/mL
same,EC50,[19],0.014 µg/mL
same,EC50,[20],0.016 µg/mL
same,EC50,[21],0.019 µg/mL
same,EC50,[22],0.014 µg/mL
same,EC50,[23],0.016 µg/mL
same,EC50,[24],0.014 µg/mL
same,EC50,[25],0.013 µg/mL
same,EC50,[26],0.015 µg/mL
same,EC50,[27],0.015 µg/mL
same,EC50,[28],0.018 µg/mL
same,Kd,[29],5 nM
same,Kd,[30],1.9 nM
same,Kd,[31],21 nM
same,koff,[31],0.0034 s⁻¹
same,kon,[31],160000 M⁻¹ s⁻¹
same,Kd,[32],16 nM
same,koff,[32],0.004 s⁻¹
same,kon,[32],240000 M⁻¹ s⁻¹
same,Kd,[33],1.6 nM
same,koff,[33],0.0005 s⁻¹
same,kon,[33],320000 M⁻¹ s⁻¹
same,Kd,[34],3.3 nM
same,koff,[34],0.001 s⁻¹
same,kon,[34],310000 M⁻¹ s⁻¹
same,Kd,[35],6.2 nM
same,Kd,[36],3.6 nM
same,Kd,[37],2.9 nM
same,koff,[37],0.0009 s⁻¹
same,kon,[37],300000 M⁻¹ s⁻¹
same,Kd,[38],19 nM
same,koff,[38],0.0031 s⁻¹
same,kon,[38],170000 M⁻¹ s⁻¹
same,Kd,[39],4.3 nM
same,Kd,[40],16 nM
same,koff,[40],0.0035 s⁻¹
same,kon,[40],220000 M⁻¹ s⁻¹
same,Kd,[41],16 nM
same,koff,[41],0.0027 s⁻¹
same,kon,[41],170000 M⁻¹ s⁻¹
same,Kd,[42],25 nM
same,koff,[42],0.0056 s⁻¹
same,kon,[42],220000 M⁻¹ s⁻¹
same,Kd,[43],2.9 nM
same,Kd,[44],6.2 nM
